Source: PMC4633281

Columns and labels:
[1] = biological target: TamA with loop-His6 sequence (E. coli) (UniProt P0ADE4); assay: quartz crystal microbalance with dissipation
[2] = biological target: reconstituted TAM (TamA loop-His6 with purified TamB) in a supported membrane (E. coli) (UniProt P0ADE4); assay: magnetic contrast neutron reflectometry
[3] = biological target: TamA with loop-His6 sequence (E. coli) (UniProt P0ADE4); assay: magnetic contrast neutron reflectometry

| Substance | decrease in frequency (QCM-D) [1] | frequency response (QCM-D) [1] | volume fraction of Ag43 in the membrane layer [2] | surface excess of Ag43, fold over that with the complete TAM [3] | volume fraction of Ag43 in the membrane layer [3] |
| --- | --- | --- | --- | --- | --- |
| TamB, soluble, purified from the periplasm (domain or fragment) | 95 Hz | 30 Hz |  |  |  |
| Ag43, urea-denatured, purified (from UniProt P39180 53-1039) (natural protein) |  |  | 11% | 3 fold | 45% |
